The results in this text go back to patent US20140242080A1 (Hoffmann-La Roche, published 2014).

Positions count from the first letter of the chain named.

Test [1] deals with T1, human CD3 expressed on Jurkat cells (human, UniProt P07766 23-207).
T1 construct: CD3 complex on Jurkat T cells; also called CD3 on Jurkat cells; huCD3
In words: flow cytometry on Jurkat cells. Here is the method: Binding of the different bispecific constructs to CD3 on Jurkat cells (ATCC #TIB-152), and the respective tumor antigen on target cells, was determined by FACS. Briefly, cells were harvested, counted and checked for viability. 0.15-0.2 million cells per well (in PBS containing 0.1% BSA; 90 μl) were plated in a round-bottom 96-well plate and incubated with the indicated concentration of the bispecific constructs and corresponding IgG controls (10 μl) for 30 min at 4° C. […] After the incubation, cells were centrifuged (5 min, 350×g), washed with 150 μl PBS containing 0.1% BSA, resuspended and incubated for further 30 min at 4° C. with 12 μl/well of a FITC- or PE-conjugated secondary antibody. Bound constructs were detected using a FACSCantoII (Software FACS Diva). The “(scFv)₂” molecule was detected using a FITC-conjugated anti-His antibody (Lucerna, #RHIS-45F-Z). For all other molecules, a FITC- or PE-conjugated AffiniPure F(ab′)2 Fragment goat anti-human IgG Fcγ Fragment Specific (Jackson Immuno Research Lab #109-096-098/working solution 1:20, or #109-116-170/working solution 1:80, respectively) was used. Cells were washed by addition of 120 μl/well PBS containing 0.1% BSA and centrifugation at 350×g for 5 min. A second washing step was performed with 150 μl/well PBS containing 0.1% BSA. […] EC50 values were calculated using the GraphPad Prism software.
As a control, the equivalent maximum concentration of the corresponding IgGs and the background staining due to the labeled 2ndary antibody (goat anti-human FITC-conjugated AffiniPure F(ab′)2 Fragment, FcγFragment-specific, Jackson Immuno Research Lab #109-096-098) were assessed as well.

Test [2] has as its target T2, human CEA expressed on tumor cells (LS-174T, A549-huCEA, MKN-45, MC38-huCEA, HPAFII, BxPC-3, ASPC-1) (human, UniProt P06731 35-685).
T2 sequence (looked up): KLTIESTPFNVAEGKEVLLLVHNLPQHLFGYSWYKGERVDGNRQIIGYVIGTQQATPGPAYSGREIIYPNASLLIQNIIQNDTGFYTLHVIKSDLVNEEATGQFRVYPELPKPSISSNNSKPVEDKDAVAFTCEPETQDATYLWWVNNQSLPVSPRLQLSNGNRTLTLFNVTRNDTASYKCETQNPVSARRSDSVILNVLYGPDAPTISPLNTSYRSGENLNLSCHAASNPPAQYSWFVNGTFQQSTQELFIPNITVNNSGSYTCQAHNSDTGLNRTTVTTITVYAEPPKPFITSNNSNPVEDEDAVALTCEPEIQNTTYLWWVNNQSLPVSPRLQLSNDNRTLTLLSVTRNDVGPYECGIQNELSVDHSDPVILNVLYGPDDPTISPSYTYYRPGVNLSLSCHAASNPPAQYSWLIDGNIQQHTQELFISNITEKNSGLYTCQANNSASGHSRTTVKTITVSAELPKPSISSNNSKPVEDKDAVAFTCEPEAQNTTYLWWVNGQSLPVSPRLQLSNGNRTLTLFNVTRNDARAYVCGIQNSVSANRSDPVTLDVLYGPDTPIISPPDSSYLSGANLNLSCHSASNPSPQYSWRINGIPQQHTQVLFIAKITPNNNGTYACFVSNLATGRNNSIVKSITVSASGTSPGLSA
In words: cell-based or functional assay.

In test [3] the target is T3, hu-MCSP(D3 domain)-avi-his (human, UniProt Q6UVK1 1582-2224).
T3 construct: Recombinant D3 domain with avi and his tags; also called human MCSP(D3 domain)-avi-his; Human MCSP D3
T3 sequence: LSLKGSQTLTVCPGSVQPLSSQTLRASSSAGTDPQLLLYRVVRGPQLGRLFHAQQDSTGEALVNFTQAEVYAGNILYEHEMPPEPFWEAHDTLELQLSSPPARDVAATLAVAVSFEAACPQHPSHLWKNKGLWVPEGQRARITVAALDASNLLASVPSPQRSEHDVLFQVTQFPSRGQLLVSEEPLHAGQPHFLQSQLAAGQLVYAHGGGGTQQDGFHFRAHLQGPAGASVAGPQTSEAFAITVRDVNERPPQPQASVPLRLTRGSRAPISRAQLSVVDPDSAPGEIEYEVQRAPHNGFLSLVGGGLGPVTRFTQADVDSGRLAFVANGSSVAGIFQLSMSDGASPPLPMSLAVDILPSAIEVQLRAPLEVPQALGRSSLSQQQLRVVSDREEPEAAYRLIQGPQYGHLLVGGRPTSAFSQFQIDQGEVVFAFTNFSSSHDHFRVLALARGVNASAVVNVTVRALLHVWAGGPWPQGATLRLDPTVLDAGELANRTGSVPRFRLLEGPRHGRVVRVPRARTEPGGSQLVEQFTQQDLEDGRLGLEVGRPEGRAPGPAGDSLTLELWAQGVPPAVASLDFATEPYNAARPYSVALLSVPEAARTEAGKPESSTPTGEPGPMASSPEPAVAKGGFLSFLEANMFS
Nature of the test: SPR ProteOn XPR36, 25 C; IgG captured via anti-human F(ab')2, MCSP D3 as analyte.

Test [4] deals with T4, cynomolgus MCSP D3 (cynomolgus, UniProt Q6UVK1 1582-2224 (human entry), limits assumed).
T4 construct: also called Cyno MCSP; cynomolgus homologue
T4 chain: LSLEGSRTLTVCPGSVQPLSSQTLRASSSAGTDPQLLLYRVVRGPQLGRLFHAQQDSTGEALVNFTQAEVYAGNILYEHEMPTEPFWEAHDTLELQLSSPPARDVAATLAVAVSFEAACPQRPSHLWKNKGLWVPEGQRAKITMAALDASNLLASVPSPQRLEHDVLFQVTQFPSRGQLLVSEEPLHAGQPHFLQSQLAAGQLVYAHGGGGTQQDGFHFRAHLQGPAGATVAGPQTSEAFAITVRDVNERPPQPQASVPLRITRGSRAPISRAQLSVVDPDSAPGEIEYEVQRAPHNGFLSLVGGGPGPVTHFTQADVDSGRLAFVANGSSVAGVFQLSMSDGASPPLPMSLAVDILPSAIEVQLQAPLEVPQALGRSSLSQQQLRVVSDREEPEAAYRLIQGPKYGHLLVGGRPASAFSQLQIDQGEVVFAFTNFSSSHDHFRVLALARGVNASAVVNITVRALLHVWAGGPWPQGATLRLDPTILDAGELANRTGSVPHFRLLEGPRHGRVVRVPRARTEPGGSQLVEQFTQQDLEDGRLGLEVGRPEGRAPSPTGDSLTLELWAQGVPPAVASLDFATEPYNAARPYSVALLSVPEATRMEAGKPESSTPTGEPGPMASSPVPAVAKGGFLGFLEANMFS
The description is as above.

In test [5] the target is T3, hu-MCSP(D3 domain)-avi-his. Nature of the test: SPR Biacore T200, 25 C; avidity: MCSP D3 captured via anti-Penta His, IgG as analyte. Here is the method: (§1) For analyzing the avidity of the interaction of different anti-MCSP IgGs to human and cynomolgus MCSP D3 direct coupling of around 9,500 resonance units (RU) of the anti-Penta His antibody (Qiagen) was performed on a CM5 chip at pH 5.0 using the standard amine coupling kit (Biacore, Freiburg/Germany). Antigens were captured for 60 s at 30 nM with 10 μl/min respectively. IgGs were passed at a concentration of 0.0064-100 nM with a flowrate of 30 μl/min through the flow cells over 280 s. The dissociation was monitored for 180 s. Bulk refractive index differences were corrected for by subtracting the response obtained on reference flow cell. […] For affinity measurements IgGs were captured on a CM5 sensorchip surface with immobilized anti human Fc. Capture IgG was coupled to the sensorchip surface by direct immobilization of around 9,500 resonance units (RU) at pH 5.0 using the standard amine coupling kit (Biacore, Freiburg/Germany). IgGs are captured for 25 s at 10 nM with 30 μl/min. Human and cynomolgus MCSP D3 were passed at a concentration of 2-500 nM with a flowrate of 30 μl/min through the flow cells over 120 s. The dissociation was monitored for 60 s. […] Bulk refractive index differences were corrected for by subtracting the response obtained on reference flow cell.
A general note: Surface plasmon resonance follows binding to a sensor surface in real time, without labels.

Test [6] addresses T4, cynomolgus MCSP D3. The description is as above. The procedure: as §1
Test [7] has as its target T3, hu-MCSP(D3 domain)-avi-his. Nature of the test: SPR Biacore T200, 25 C; affinity: IgG captured via anti-human Fc, MCSP D3 as analyte. The procedure: as §1
In test [8] the target is T4, cynomolgus MCSP D3. The test is described as above. Here is the method: as §1
Test [9] addresses T3, hu-MCSP(D3 domain)-avi-his. Nature of the test: SPR ProteOn XPR36, 25 C; Fab captured via anti-human F(ab')2, MCSP D3 as analyte. Here is the method:
Briefly, carboxymethylated dextran biosensor chips (CM5, GE Healthcare) were activated with N-ethyl-N′-(3-dimethylaminopropyl)-carbodiimide hydrochloride (EDC) and N-hydroxysuccinimide (NHS) according to the supplier's instructions. Anti-human F(ab′)2 fragment specific capture antibody was diluted with 10 mM sodium acetate, pH 5.0 at 50 μg/ml before injection at a flow rate of 10 μl/minute to achieve approximately up to 10.000 response units (RU) of coupled capture antibody. Following the injection of the capture antibody, 1 M ethanolamine is injected to block unreacted groups. For kinetics measurements, Fabs from bacterial supernatant or purified Fabs were injected at a flow rate of 10 μl/minute for 300 s and a dissociation of 300 s for capture baseline stabilization. […] The surface of the sensorchip was regenerated by injection of glycine pH 1.5 for 30 s at 90 μl/min followed by injection of NaOH for 20 s at the same flow rate. Association rates (kₒₙ) and dissociation rates (koff) were calculated using a simple one-to-one Langmuir binding model (ProteOn XPR36 Evaluation Software or Scrubber software (BioLogic)) by simultaneously fitting the association and dissociation sensorgrams. The equilibrium dissociation constant (KD) was calculated as the ratio koff/kₒₙ.

T1 sequence (P07766 23-207 limits assumed): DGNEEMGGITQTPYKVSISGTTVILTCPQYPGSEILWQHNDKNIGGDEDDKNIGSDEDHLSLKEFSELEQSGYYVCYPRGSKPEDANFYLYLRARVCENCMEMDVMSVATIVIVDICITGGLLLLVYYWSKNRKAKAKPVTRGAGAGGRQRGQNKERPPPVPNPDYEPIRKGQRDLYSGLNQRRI

B1: 1 + 1 IgG-Crossfab light chain fusion (CH1A1A/V9) (anti-CEA/anti-huCD3) (bispecific antibody)
chain 1: DIQMTQSPSSLSASVGDRVTITCRASQDIRNYLNWYQQKPGKAPKLLIYYTSRLESGVPSRFSGSGSGTDYTLTISSLQPEDFATYYCQQGNTLPWTFGQGTKVEIKSSASTKGPSVFPLAPSSKSTSGGTAALGCLVKDYFPEPVTVSWNSGALTSGVHTFPAVLQSSGLYSLSSVVTVPSSSLGTQTYICNVNHKPSNTKVDKKVEPKSC
chain 2: DIQMTQSPSSLSASVGDRVTITCKASAAVGTYVAWYQQKPGKAPKLLIYSASYRKRGVPSRFSGSGSGTDFTLTISSLQPEDFATYYCHQYYTYPLFTFGQGTKLEIKRTVAAPSVFIFPPSDEQLKSGTASVVCLLNNFYPREAKVQWKVDNALQSGNSQESVTEQDSKDSTYSLSSTLTLSKADYEKHKVYACEVTHQGLSSPVTKSFNRGECGGGGSGGGGSGGGGSGGGGSEVQLVESGGGLVQPGGSLRLSCAASGYSFTGYTMNWVRQAPGKGLEWVALINPYKGVSTYNQKFKDRFTISVDKSKNTAYLQMNSLRAEDTAVYYCARSGYYGDSDWYFDVWGQGTLVTVSSASVAAPSVFIFPPSDEQLKSGTASVVCLLNNFYPREAKVQWKVDNALQSGNSQESVTEQDSKDSTYSLSSTLTLSKADYEKHKVYACEVTHQGLSSPVTKSFNRGEC
chain 3: not shown
chain 4: DKTHTCPPCPAPEAAGGPSVFLFPPKPKDTLMISRTPEVTCVVVDVSHEDPEVKFNWYVDGVEVHNAKTKPREEQYNSTYRVVSVLTVLHQDWLNGKEYKCKVSNKALGAPIEKTISKAKGQPREPQVCTLPPSRDELTKNQVSLSCAVKGFYPSDIAVEWESNGQPENNYKTTPPVLDSDGSFFLVSKLTVDKSRWQQGNVFSCSVMHEALHNHYTQKSLSLSPGK
notes: also called “1+1 IgG Crossfab light chain (LC) fusion”
With B1, the binding result in [1] was “binds”. Also, in test [2], the “EC50 of T cell-mediated killing (LDH release), LS-174T cells, human PBMCs E:T 10:1, 28 h” value came out at 1.56 nM; the “EC50 of T cell-mediated killing (LDH release), MC38-huCEA cells, human PBMCs E:T 10:1, 24 h” value was around 3.2 nM; the “EC50 of T cell-mediated killing (LDH release), MKN-45 cells, human PBMCs E:T 10:1, 28 h” value was 0.213 nM.

B2: Parental M4-3/ML2 IgG (antibody, V domains shown)
VH: QVQLQESGPGLVKPSQTLSLTCTVSGGSITSGYYWNWIRQHPGKGLEWIGYITYDGSNNYNPSLKSRVTISRDTSKNQFSLKLSSVTAADTAVYYCADFDYWGQGTLVTVSS
VL: DIQMTQSPSSLSASVGDRVTITCRASQGIRNYLNWYQQKPGKAPKLLIYYTSSLHSGVPSRFSGSGSGTDFTLTISSLQPEDFATYYCQQYSKLPWTFGQGTKVEIK
notes: Human IgG1 format, from mammalian production; also called M4-3 ML2 (parental); anti-MCSP antibody M4-3/ML2
Take B2: the Kd in test [3] was 2 nM; with cynomolgus MCSP D3 [4], 2 nM; in [5] it was 0.009 nM; in the test with cynomolgus MCSP D3 [6], 0.0123 nM; in test [7], 8.6 nM; with cynomolgus MCSP D3 [8], 11.4 nM.

B3: M4-3/ML2(G3) Fab (Fab, V domains shown)
VH: B2 VH
VL: B2 VL with F71Y, K93A
notes: Soluble Fab with Flag tag
In test [9], B3 yielded a Kd of 0.4 nM.
